Measurements reported in PMC9073327.
Where a chain is given by its changes, count along the chain named.

Columns and labels:
WRKY10:MYC [1] = biological target: T1, WRKY10:MYC (Arabidopsis thaliana (Col), UniProt Q9LG05 1-485); assay: EMSA
WRKY2:HIS [2] = biological target: T2, WRKY2:HIS (Arabidopsis thaliana (Col), UniProt Q9FG77 1-687); assay: EMSA
WRKY10:MYC [3] = biological target: T1, WRKY10:MYC; assay: competition
WRKY2:HIS [4] = biological target: T2, WRKY2:HIS; assay: competition
CCA1:MBP [5] = biological target: T3, CCA1:MBP (Arabidopsis thaliana, UniProt P92973 1-608); assay: EMSA
LHY:MBP [6] = biological target: T4, LHY:MBP (Arabidopsis thaliana, UniProt Q6R0H1 1-645); assay: EMSA
T4 sequence: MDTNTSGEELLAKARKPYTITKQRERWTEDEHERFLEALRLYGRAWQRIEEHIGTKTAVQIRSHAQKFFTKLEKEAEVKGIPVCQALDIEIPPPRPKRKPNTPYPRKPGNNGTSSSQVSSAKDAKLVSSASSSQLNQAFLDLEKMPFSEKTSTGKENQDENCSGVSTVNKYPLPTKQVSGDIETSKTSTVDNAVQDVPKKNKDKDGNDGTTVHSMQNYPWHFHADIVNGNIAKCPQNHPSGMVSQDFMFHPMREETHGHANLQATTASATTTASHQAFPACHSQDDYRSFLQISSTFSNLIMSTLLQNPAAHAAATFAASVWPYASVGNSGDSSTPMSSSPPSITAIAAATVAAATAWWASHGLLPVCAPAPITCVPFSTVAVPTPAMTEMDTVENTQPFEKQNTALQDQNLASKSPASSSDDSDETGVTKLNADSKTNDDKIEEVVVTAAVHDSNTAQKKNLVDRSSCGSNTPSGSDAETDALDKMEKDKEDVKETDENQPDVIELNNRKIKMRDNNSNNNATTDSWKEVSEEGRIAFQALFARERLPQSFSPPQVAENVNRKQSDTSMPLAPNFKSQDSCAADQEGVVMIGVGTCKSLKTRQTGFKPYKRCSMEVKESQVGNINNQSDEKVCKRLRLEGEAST

LHY:MBP;WRKY10:MYC = LHY:MBP;WRKY10:MYC (Arabidopsis thaliana;Arabidopsis …, UniProt Q6R0H1;Q9LG05 1-645;1-485, |); assay: EMSA
LHY:MBP;WRKY2:HIS = LHY:MBP;WRKY2:HIS (Arabidopsis thaliana;Arabidopsis …, UniProt Q6R0H1;Q9FG77 1-645;1-687, |); assay: EMSA
LHY:MBP [7] = biological target: T4, LHY:MBP; assay: competition
CCA1:MBP [8] = biological target: T3, CCA1:MBP; assay: competition

T2 sequence (Q9FG77 whole entry): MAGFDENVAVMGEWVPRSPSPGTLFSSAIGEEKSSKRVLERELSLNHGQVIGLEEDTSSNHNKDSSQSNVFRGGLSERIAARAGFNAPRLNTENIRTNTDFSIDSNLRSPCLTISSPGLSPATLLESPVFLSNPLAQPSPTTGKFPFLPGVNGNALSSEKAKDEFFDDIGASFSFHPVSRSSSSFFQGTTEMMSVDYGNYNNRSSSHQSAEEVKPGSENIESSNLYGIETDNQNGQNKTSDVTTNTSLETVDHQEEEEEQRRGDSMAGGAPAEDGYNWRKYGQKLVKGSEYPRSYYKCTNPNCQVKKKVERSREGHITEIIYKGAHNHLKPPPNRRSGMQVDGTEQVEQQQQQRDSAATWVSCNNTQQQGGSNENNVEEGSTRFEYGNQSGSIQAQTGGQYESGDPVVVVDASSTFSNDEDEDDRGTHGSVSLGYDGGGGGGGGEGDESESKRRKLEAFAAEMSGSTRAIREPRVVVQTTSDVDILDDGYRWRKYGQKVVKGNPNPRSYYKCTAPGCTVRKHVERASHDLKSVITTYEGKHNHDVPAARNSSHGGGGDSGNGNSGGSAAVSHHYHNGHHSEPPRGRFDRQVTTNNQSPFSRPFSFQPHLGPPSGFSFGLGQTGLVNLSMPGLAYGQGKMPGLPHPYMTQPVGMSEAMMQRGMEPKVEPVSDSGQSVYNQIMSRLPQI
T1 sequence (Q9LG05 whole entry): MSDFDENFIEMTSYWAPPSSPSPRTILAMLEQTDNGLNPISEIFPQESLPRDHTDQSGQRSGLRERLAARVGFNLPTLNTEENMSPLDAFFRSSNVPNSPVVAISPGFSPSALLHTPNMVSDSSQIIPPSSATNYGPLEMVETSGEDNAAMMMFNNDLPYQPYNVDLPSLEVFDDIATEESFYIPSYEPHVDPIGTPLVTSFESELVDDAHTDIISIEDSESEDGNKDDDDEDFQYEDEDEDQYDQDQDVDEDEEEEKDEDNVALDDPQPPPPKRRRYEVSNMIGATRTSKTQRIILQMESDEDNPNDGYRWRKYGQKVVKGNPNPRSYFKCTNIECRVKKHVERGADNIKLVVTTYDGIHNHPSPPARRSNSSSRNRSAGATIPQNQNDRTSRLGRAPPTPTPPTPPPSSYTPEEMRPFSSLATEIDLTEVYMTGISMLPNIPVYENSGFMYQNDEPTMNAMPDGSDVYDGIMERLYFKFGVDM
T3 sequence (P92973 whole entry): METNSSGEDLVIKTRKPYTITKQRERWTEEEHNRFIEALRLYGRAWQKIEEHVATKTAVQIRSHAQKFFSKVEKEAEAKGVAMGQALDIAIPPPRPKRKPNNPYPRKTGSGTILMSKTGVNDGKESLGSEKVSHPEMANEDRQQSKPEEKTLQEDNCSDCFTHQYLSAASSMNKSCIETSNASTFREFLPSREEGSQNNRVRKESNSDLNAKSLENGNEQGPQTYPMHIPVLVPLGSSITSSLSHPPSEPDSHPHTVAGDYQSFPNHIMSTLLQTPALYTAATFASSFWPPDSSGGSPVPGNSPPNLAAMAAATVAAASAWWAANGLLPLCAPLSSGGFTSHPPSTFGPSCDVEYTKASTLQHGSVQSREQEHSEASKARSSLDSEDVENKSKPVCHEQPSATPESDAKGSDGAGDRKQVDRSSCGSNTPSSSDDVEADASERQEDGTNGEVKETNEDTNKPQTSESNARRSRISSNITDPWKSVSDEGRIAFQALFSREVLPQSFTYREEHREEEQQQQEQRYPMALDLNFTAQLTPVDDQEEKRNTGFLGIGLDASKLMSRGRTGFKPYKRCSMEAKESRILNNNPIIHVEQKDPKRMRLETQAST
Chain of LHY:MBP;WRKY2:HIS (Q9FG77 whole entry, one chain of several): as the sequence (Q9FG77 whole entry) above
Chain of LHY:MBP;WRKY10:MYC (Q9LG05 whole entry, one chain of several): as the sequence (Q9LG05 whole entry) above

B1: PIF4 W1-box probe (4W1) (dsDNA)
DNA 1: CTATAGATGATTGTGATTTGACAAAAACACCCTCAAATCA
DNA 2: TGATTTGAGGGTGTTTTTGTCAAATCACAATCATCTATAG
binding result (WRKY10:MYC [1]): binds
binding result (WRKY2:HIS [2]): binds

B2: PIF4 W1-box mutant competitor (4W1 mut) (dsDNA)
DNA 1: CTATAGATGATTGTGATGGTGTGAAAACACCCTCAAATCA
DNA 2: TGATTTGAGGGTGTTTTCACACCATCACAATCATCTATAG
binding result (WRKY10:MYC [3]): no binding
binding result (WRKY2:HIS [4]): no binding

B3: PIF4 M1-box probe (4M1) (dsDNA)
DNA 1: ATCTCCCTCGCTGTAATATCTTTATGCTCCTGTCACT
DNA 2: AGTGACAGGAGCATAAAGATATTACAGCGAGGGAGAT
binding result (CCA1:MBP [5]): binds
binding result (LHY:MBP [6]): binds
binding result (LHY:MBP;WRKY10:MYC): binds
binding result (LHY:MBP;WRKY2:HIS): binds

B4: PIF4 M1-box mutant competitor (4M1 mut) (dsDNA)
DNA 1: B3 DNA 1 with A18T, T19G
DNA 2: B3 DNA 2 with A19C, T20A
binding result (LHY:MBP [7]): no binding
binding result (CCA1:MBP [8]): no binding
